Assays:
[1] = molecular target: ROR1 (Homo sapiens, UniProt Q01973); experiment: SPR / BLI binding kinetics to immobilised ROR1-hFc; design: ROR1-hFc or ROR2-hFc fusion proteins (extracelluar domains) were immobilised; conditions: for hROR1 Ka / hROR1 Ka (M^−1s^−1): association rate; for Kd: read-out: hROR1 KD
Experimental: (§1) VNARs were genetically fused to engineered hIgG1 Fc domains via standard [G4S]3 that contained a cysteine substitution in the hIgG1 Fc sequence, S239C (EU numbering). The VNAR Fc fusion proteins were expressed as secreted protein in CHO K1 cells and purified from the media using MabSelect™ SuRe™ (Evitria, Switzerland). Purified proteins were analysed by SEC (AdvanceBio, Agilent), SDS PAGE and mass spectrometry to confirm sequence and protein integrity. Binding kinetics were determined using a Pioneer Surface Plasmon Resonance (SPR) instrument (SensiQ/Pall ForteBio), or the Biolayer Interferometry (BLI) Octet K2 system (ForteBio). ROR1-hFc or ROR2-hFc fusion proteins (extracelluar domains) were immobilised in sodium acetate pH5 buffer to COOH2 chips or AR2G sensors using amine coupling. VNARs and VNAR-Fc molecules were tested at various concentrations and the Ka (M^−1 s^−1), Kd (s^−1) and KD (nM) values were determined using QDat software (SensiQ/Pall ForteBio) or Octet Data Analysis High Throughput software (ForteBio) for Biolayer Interferometry. ROR1 2A2 mAb (Biolegend) and ROR2 mAb (R&D Systems) were included as controls for positive/negative binding to ROR1 and ROR2. 2V is a control VNAR sequence, derived from a naïve VNAR library, so is representative of this protein class but has no known target.
(§2) Binding kinetics for binding of the multimeric VNAR proteins to ROR1-hFc or ROR2-hFc fusion proteins (extracelluar domains) were determined using a Pioneer Surface Plasmon Resonance (SPR) instrument (SensiQ/Pall ForteBio) or the Biolayer Interferometry (BLI) Octet K2 system (ForteBio) as previously described.

[2] = molecular target: T1, human ROR2 (Homo sapiens, UniProt Q01974); experiment: SPR / BLI binding to immobilised ROR2-hFc
T1 construct: ROR1-hFc or ROR2-hFc fusion proteins (extracelluar domains) were immobilised
Experimental: as §1, §2

[3] = system: PA-1; experiment: In vitro cell viability assay (Cell Titre Glo), VNAR drug conjugates: PA-1; assay type: cell-based, human; conditions: for IC50: Table 5, 96 h
Experimental: (§3) In Vitro Cell Viability Assays for Cancer Cells Treated with Anti ROR1 VNAR Drug Conjugates
(§4) Cells were seeded into white, clear bottom 96 well plates (Costar) and incubated at 37° C., 5% CO2 for 24 hours. On the following day, dilution series were set up for each test agent at ×10 working stocks. The dose response ×10 stock was: 10000, 5000, 1000, 500, 100, 50, 10, 5, 1, 0.5 nM etc. 10 μL of the ×10 stock solutions were added to the cell plates (90 μl per well) using a multichannel pipette. […] 100d of vehicle control (PBS) was added to the control wells (columns 11 and 12). Plates were incubated at 37′C, 5% CO2 for 72-96 hours. Promega Cell litre Glo reagent was used as per the manufacturer's instructions to assess cell viability. Briefly, assay plates were removed from incubator and allowed to equilibrate to room temperature before adding […] of room temperature Cell litre Glo reagent to each 100 μl assay well. Plates were placed on a plate shaker for 2 minutes at 600 rpm. Plates were allowed to sit for a further 10 minutes at room temperature prior to measuring luminescence read-out using a Clariostar plate-reader (BMG). Data was analysed by calculating the average for untreated (vehicle only) control wells and determining the % of control for each treated well. % of control data was then plotted against Log [Treatment] concentration and the IC50 value derived using non-linear regression fitting in GraphPad Prism software.
(§5) The following cell lines were used: • Kasumi-2—human B cell leukaemia precursor; • PA-1—human ovarian cancer cell line; • PA-1 ROR1 ko—human ovarian cancer cell line with ROR1 knock-out; • 697—human B cell leukaemia precursor, and • MHH-ES1—human Ewing's sarcoma cell line.

[4] = Mouse plasma stability of protein-PNU conjugates (LC-MS of released payload); assay type: in vitro ADME; conditions: 37° C., 4 μM protein
Experimental: (§6) Different P3A1-hFc-PNU conjugates were incubated at 37° C. in mouse plasma at a final concentration of 4 μM of protein. Samples were analysed by LC-MS as a function of time and the amount of released PNU159682 and EDA-PNU159682 derivative was quantified by reference to calibration standards.

[5] = Human plasma stability of protein-PNU conjugates (LC-MS of released payload); assay type: in vitro ADME; conditions: 37° C., up to 168 h, 4 or 2 uM PDC, LLOQ 0.1 or 0.156 uM
Experimental: as §6, with “Different” for “Different P3A1-hFc-PNU”, “C. for 168 h” for “C.”, “human” for “mouse”, “4 μM or 2” for “4”, “time up to and including 168 h” for “time”

[6] = system: 697; experiment: In vitro cell viability assay (Cell Titre Glo), VNAR drug conjugates: 697; assay type: cell-based, human
Experimental: as §3, §4, §5

[7] = molecular target: Cathepsin B (Homo sapiens, UniProt P07858); experiment: Cathepsin B treatment of protein-PNU conjugates, payload release; assay type: in vitro ADME; conditions: after treatment with Cat B; protein 10 uM (2VhFc conjugate 5 uM)
Description: Cathepsin B treatment of VNAR-hFc-vc-PAB-EDA-PNU conjugates and the corresponding conjugates of the multimeric proteins liberated free EDA-PNU159682 derivative in a quantitative fashion. Whereas, VNAR-hFc-va-EDA-PNU conjugates and the corresponding conjugates of the multimeric proteins were completely stable to Cathepsin B treatment.
Only the vc-PAB-EDA-PNU releases payload on treatment with CatB as expected for the conditions used in this in vitro assay. The release is quantitative—as the conjugates have a drug to antibody ratio of 2, then twice the concentration of payload released versus the concentration of conjugate is expected after CatB treatment. This expectation matches the data shown in Table 11 for vc-PAB-EDA-PNU conjugates.

[8] = system: PA-1 ROR1 ko; experiment: In vitro cell viability assay (Cell Titre Glo), VNAR drug conjugates: PA-1 ROR1 ko; assay type: cell-based, human; conditions: for IC50: Table 5, 96 h, PA-1 ROR1 ko
Experimental: as §3, §4, §5

[9] = system: MHH-ES1; experiment: In vitro cell viability assay (Cell Titre Glo), VNAR drug conjugates: MHH-ES1; assay type: cell-based, human; conditions: for IC50: Table 5, 96 h
Experimental: as §3, §4, §5

[10] = system: Kasumi-2; experiment: In vitro cell viability assay (Cell Titre Glo), VNAR drug conjugates: Kasumi-2; assay type: cell-based, human; conditions: for IC50: Table 5, 96 h
Experimental: as §3, §4, §5

[11] = Table 3b, VNAR-Fc fusions, dissociation rate
[12] = ratio to corresponding non-binding 2V-hFc conjugate
[13] = Table 3, VNAR-Fc fusions, dissociation rate

B1: B1V15 hFc: humanised VNAR B1V15 (SEQ ID NO: 59) - hFc fusion (protein)
chain: ASVTQSPRSASKETGESLTITCRVTGANYGLAATYWYRKNPGSSNQERISISGRYSESVNKRTMSFSLRISSLTVEDSATYYCKAYPWGAGAPWLVQWYDGQGTKLEVKGGGGSGGGGSGGGGS
modifications: left off: a dimerising Fc or GST
[1]; Table 3b, VNAR-Fc fusions
  hROR1 Ka: 179000 M⁻¹ s⁻¹
[1]; [11]
  hROR1 Kd: 0.00013 s⁻¹
[2]; Table 3b, VNAR-Fc fusions
  hROR2: No binding

B2: P3A1hFc-PEG4-vc-PAB-EDA-PNU (conjugate)
chain: TRVDQTPRTATKETGESLTINCVLTDTSYGLYSTSWFRKNPGTTDWERMSIGGRYVESVNKGAKSFSLRIKDLTVADSATYYCKAREARHPWLRQWYDGAGTVLTVNGGGGSGGGGSGGGGS
modifications: left off: a dimerising Fc or GST
[3]
  IC50: 0.1 nM
[3]; [12]
  ROR1 targeting/2V non-targeting window PA-1: 73
[4]; 4 h
  Concentration (nM) of free PNU payload detected by LC-MS, 4 h: 21 nM
[4]; 24 h
  Concentration (nM) of free PNU payload detected by LC-MS, 24 h: 84 nM
[4]; 48 h
  Concentration (nM) of free PNU payload detected by LC-MS, 48 h: 108 nM
[4]; 72 h
  Concentration (nM) of free PNU payload detected by LC-MS, 72 h: 107 nM
[4]; 96 h
  Concentration (nM) of free PNU payload detected by LC-MS, 96 h: 101 nM
[4]; 120 h
  Concentration (nM) of free PNU payload detected by LC-MS, 120 h: 114 nM
[5]
  Observed EDA payload release: EDA-PNU not detected above LLOQ
[6]; Table 5, 96 h
  IC50: 52 nM
[6]; [12]
  ROR1 targeting/2V non-targeting window 697: 1.2
[7]
  Average Conc EDA Released: 20.1 µM
[8]
  IC50: 11 nM
[8]; ratio to corresponding non-binding 2V-hFc conjugate, PA-1 31-J-06 (ROR1 −/−; matches PA-1 ROR1 ko of Table 5)
  ROR1 targeting/2V non-targeting window PA-1 31-J-06: 1.3
[9]
  IC50: 24 nM
[9]; [12]
  ROR1 targeting/2V non-targeting window MHH-ES1: 1.1
[10]
  IC50: 3.2 nM
[10]; [12]
  ROR1 targeting/2V non-targeting window Kasumi-2: 18

B3: 2V hFc: non-binding control VNAR 2V fused to hIgG1 Fc (protein)
chain: TRVDQTPRTATKETGESLTINCVLTDTSYGLYSTSWFRKNPGTTDWERMSIGGRYVESVNKGAKSFSLRIKDLTVADSATYYCKAQSLAISTRSYWYDGAGTVLTVNGGGGSGGGGSGGGGS
modifications: left off: a dimerising Fc or GST
[1]; Table 3, VNAR-Fc fusions
  hROR1 KD (nM): No binding
  hROR1 Ka (M^−1s^−1): No binding
[1]; [13]
  hROR1 Kd (s^−1): No binding
[2]; Table 3, VNAR-Fc fusions
  hROR2: No binding

B4: P3A1 hFc(442): VNAR P3A1 fused to engineered hIgG1 Fc with cysteine substitution S442C (EU numbering) (protein)
chain: TRVDQTPRTATKETGESLTINCVLTDTSYGLYSTSWFRKNPGTTDWERMSIGGRYVESVNKGAKSFSLRIKDLTVADSATYYCKAREARHPWLRQWYDGAGTVLTVNGGGGSGGGGSGGGGS
modifications: left off: a dimerising Fc or GST
[1]; Table 3b, VNAR-Fc fusions
  hROR1 Ka (M^−1s^−1): 2.70+05 M^−1s^−1
[1]; [11]
  hROR1 Kd: 0.0002 s⁻¹
[2]; Table 3b, VNAR-Fc fusions
  hROR2: No binding

B5: P3A1 hFc: ROR1-specific VNAR P3A1 fused to engineered hIgG1 Fc domain (S239C) (protein)
chain: TRVDQTPRTATKETGESLTINCVLTDTSYGLYSTSWFRKNPGTTDWERMSIGGRYVESVNKGAKSFSLRIKDLTVADSATYYCKAREARHPWLRQWYDGAGTVLTVNGGGGSGGGGSGGGGS
modifications: left off: a dimerising Fc or GST
[1]; Table 3, VNAR-Fc fusions
  hROR1 Ka: 1.07e+07 M⁻¹ s⁻¹
  Kd: 0.084 nM
[1]; [13]
  hROR1 Kd: 0.000564 s⁻¹
[2]; Table 3, VNAR-Fc fusions
  hROR2: No binding

B6: P3A1hFc(442)-PEG4-va-EDA-PNU (conjugate)
chain: TRVDQTPRTATKETGESLTINCVLTDTSYGLYSTSWFRKNPGTTDWERMSIGGRYVESVNKGAKSFSLRIKDLTVADSATYYCKAREARHPWLRQWYDGAGTVLTVNGGGGSGGGGSGGGGS
modifications: left off: a dimerising Fc or GST
[3]
  IC50: 0.025 nM
[5]
  Observed EDA payload release: No EDA-PNU detected at any time points
[8]
  IC50: 18.3 nM
[9]
  IC50: 37.5 nM
[10]
  IC50: 9.1 nM

B7: hFc - P3A1: hIgG1 Fc - VNAR P3A1 fusion (protein)
chain: GGGGSGGGGSGGGGSTRVDQTPRTATKETGESLTINCVLTDTSYGLYSTSWFRKNPGTTDWERMSIGGRYVESVNKGAKSFSLRIKDLTVADSATYYCKAREARHPWLRQWYDGAGTVLTVN
modifications: left off: a dimerising Fc or GST
notes: hIgG1 Fc - VNAR P3A1 fusion
[1]; Table 3, VNAR-Fc fusions
  hROR1 Ka: 2.38e+06 M⁻¹ s⁻¹
  Kd: 0.35 nM
[1]; [13]
  hROR1 Kd: 0.000776 s⁻¹
[2]; Table 3, VNAR-Fc fusions
  hROR2: No binding

Reference: US20230241072A1, “ANTHRACYCLINE DERIVATIVES” (ALMAC DISCOVERY LIMITED, priority 2019, published 2023)
